B1: Hammerhead Ribozyme (parent)
chain: ACCGGAUGUGCUUUCCGGUCUGAUGAGUCCGUGAGGACGAAACAG

This data set covers variants of B1. Kind of data set: self-cleavage, relative activity (ratio to wild type); higher = more cleavage; co-transcriptional.
Take U19C A42C: the self-cleavage is 0.237.
With U19C A42G the figure was 0.279; with U19C A42U, 0.212; with U19A U24G, 0.327.
To U19A U24C belongs 0.362; to U19A U24A, 0.465.
With U19C C30U the figure was 0.878.
For the variant U19C C30A, the self-cleavage is 0.416.
To U19C C30G belongs 0.459; to G18U G27U, 0.53.
With G18U G27A the figure was 0.567; with G18U G27C, 0.427.
Take U19A G33C: the self-cleavage was found to be 0.291.
With U19A G33U the figure was 0.398; with U19A G33A, 0.356; with U19A G35A, 0.317.
With U19A G35U the figure was 0.373; with U19A G35C, 0.422; with U19A U32A, 0.321.
To U19A U32C belongs 0.377.
As for U19A U32G, the self-cleavage turned out to be 0.33.
With G18U U28G the figure was 0.581; with G18U U28A, 0.461.
To G18U U28C belongs 0.351; to U19C A41U, 0.271.
To U19C A41G belongs 0.228; to U19C A41C, 0.429.
Regarding U19A A26U, the self-cleavage turned out to be 0.255.
Turning to U19A A26C, the self-cleavage was determined as 0.364.
For the variant U19A A26G, the self-cleavage was found to be 0.313.
With U19C A26G the figure was 0.242.
To U19C A26U belongs 0.492; to U19C A26C, 0.367; to U19C G25U, 0.273.
With U19C G25A the figure was 0.312.
As for U19C G25C, the self-cleavage stood at 0.378.
To U19C G27A belongs 0.382; to U19C G27C, 0.308.
Regarding U19C G27U, the self-cleavage was 0.311.
To G18U U24C belongs 0.642; to G18U U24A, 0.858.
To G18U U24G belongs 0.607.
To U19A G27C belongs 0.401; to U19A G27U, 0.26.
With U19A G27A, the self-cleavage was 0.34.
To G18U U19C belongs 0.487; to G18U U19A, 0.34; to G18U U19G, 0.291.
Regarding G18U U21C, the self-cleavage was 0.544.
Consider G18U U21A, for which the self-cleavage is 0.381.
For the variant G18U U21G, the self-cleavage came to 0.426.
With U19A C38G the figure was 0.365; with U19A C38A, 0.313.
With U19A C38U the figure was 0.358; with U19A A23C, 0.346.
For the variant U19A A23U, the self-cleavage is 0.386.
To U19A A23G belongs 0.426; to G18U G36A, 0.621; to G18U G36U, 0.425.
To G18U G36C belongs 0.308; to U19A C43U, 0.396.
To U19A C43G belongs 0.346; to U19A C43A, 0.279; to U19A U21C, 0.248.
For U19A U21A, the self-cleavage is 0.292.
To U19A U21G belongs 0.314.
To U19A C20U belongs 0.303; to U19A C20G, 0.31.
For U19A C20A, the self-cleavage is 0.287.
With U19C A34U the figure was 0.339.
With U19C A34C, the self-cleavage is 0.411.
To U19C A34G belongs 0.478; to U19A A34G, 0.36.
With U19A A34C the figure was 0.32.
In the case of U19A A34U, the self-cleavage came to 0.388.
To U19A C29G belongs 0.295; to U19A C29U, 0.376.
With U19A C29A the figure was 0.332.
To U19C C43A belongs 0.284.
Take U19C C43G: the self-cleavage came out at 0.393.
Take U19C C43U: the self-cleavage was 0.376.
With U19A G39A the figure was 0.297; with U19A G39C, 0.329; with U19A G39U, 0.29.
To U19C G31C belongs 0.657; to U19C G31A, 0.967.
With U19C G31U the figure was 0.789; with U19C A23G, 0.369.
As for U19C A23C, the self-cleavage was 0.299.
With U19C A23U the figure was 0.372.
For the variant G18U G33A, the self-cleavage was 0.948.
With G18U G33C the figure was 0.602; with G18U G33U, 0.705.
To U19C A44U belongs 0.258.
As for U19C A44G, the self-cleavage was 0.751.
For the variant U19C A44C, the self-cleavage stood at 0.325.
With U19A U28A the figure was 0.368.
To U19A U28C belongs 0.313.
Regarding U19A U28G, the self-cleavage amounted to 0.374.
For the variant G18U G35C, the self-cleavage stood at 0.515.
To G18U G35A belongs 0.555; to G18U G35U, 0.532; to U19C, 0.737.
To U19A belongs 0.391; to U19A A42C, 0.369; to U19A A42U, 0.378.
To U19A A42G belongs 0.34; to U19C A37U, 0.437; to U19C A37G, 0.41.
Consider U19C A37C, for which the self-cleavage was 0.668.
To U19A G25A belongs 0.347; to U19A G25U, 0.35.
With U19A G25C the figure was 0.296; with U19A G36C, 0.367; with U19A G36A, 0.369.
For U19A G36U, the self-cleavage was found to be 0.302.
To U19A A41U belongs 0.308.
As to U19A A41G, the self-cleavage worked out at 0.312.
With U19A A41C the figure was 0.391.
With U19A A37C the figure was 0.43; with U19A A37U, 0.281.
To U19A A37G belongs 0.326; to U19A C30A, 0.294.
In the case of U19A C30G, the self-cleavage amounted to 0.28.
With U19A C30U the figure was 0.369.
With G18U G45U the figure was 0.475; with G18U G45C, 0.476.
With G18U G45A the figure was 0.379.
Consider U19C A40G, for which the self-cleavage is 0.332.
With U19C A40U the figure was 0.272; with U19C A40C, 0.305.
On to U19A A44C, for which the self-cleavage was 0.368.
With U19A A44G the figure was 0.512; with U19A A44U, 0.262.
With G18U G39C the figure was 0.32; with G18U G39A, 0.339.
With G18U G39U the figure was 0.392.
Turning to G18U U32A, the self-cleavage is 0.646.
With G18U U32C the figure was 0.857; with G18U U32G, 0.802; with U19C C29A, 0.374.
Turning to U19C C29U, the self-cleavage amounted to 0.491.
For the variant U19C C29G, the self-cleavage was 0.434.
In the case of U19C C38A, the self-cleavage amounted to 0.414.
To U19C C38G belongs 0.407; to U19C C38U, 0.36; to G18U G31U, 0.781.
To G18U G31A belongs 0.905.
In the case of G18U G31C, the self-cleavage turned out to be 0.685.
To U19A A40G belongs 0.307.
Consider U19A A40U, for which the self-cleavage was found to be 0.35.
Turning to U19A A40C, the self-cleavage came out at 0.339.
To U19A G45A belongs 0.354; to U19A G45U, 0.41.
With U19A G45C the figure was 0.405.
To U19A G31A belongs 0.41; to U19A G31C, 0.384; to U19A G31U, 0.402.
U19C G22U: the self-cleavage stood at 0.267.
To U19C G22C belongs 0.323; to U19C G22A, 0.282.
With U19C C20A the figure was 0.329.
With U19C C20U the figure was 0.321; with U19C C20G, 0.289.
For U19A G22C, the self-cleavage came to 0.356.
In the case of U19A G22U, the self-cleavage came to 0.3.
To U19A G22A belongs 0.346.

The values above are taken from the RNAGym collection of RNA variant scans (doi:10.7554/elife.80360).
